The source of these data is article PMC4856991.

For the series, the target named is Hsp90alpha recombinant (UniProt P07900 1-732). As to the kind of experiment: filter binding.

As usually defined, the Kd is the concentration at which binding is half-saturated.

B1: 390896 PS/LNA 5-10-5 (XNA)
DNA: CTGCTAGCCTCTGGATTTGA
modifications: full PS; LNA nt 1-5 and 16-20, DNA 6-15
Regarding B1, the Kd stood at 17.7 nM.
